According to patent publication US20240116985A1 (published 2024):
One block for each binder: values may come before it. Starred links: 1 amine or outer side, 2 acyl side, 3 side chain; linkers in the order of their positions; H or OH if unused. Positions of bridges follow the written chain, without caps; N, C: chain ends. Non-standard residues stand in square brackets, D forms with d. Primed or numbered codes have the meaning given here. *: point of attachment. PyrS2(3) = (S)-3-amino-1-((pent-4-en-1-yloxy)carbonyl)pyrrolidine-3-carboxylic acid, stapling residue, C=CCCCOC(=O)N1CC[C@@](N[*:1])(C(=O)[*:2])C1; PyrS2″ = (S)-3-amino-1-((pent-4-en-1-yloxy)carbonyl)pyrrolidine-3-carboxylic acid (stapling residue), C=CCCCOC(=O)N1CC[C@@](N[*:1])(C(=O)[*:2])C1; B5(16) = 2-amino-2-(pent-4-en-1-yl)hept-6-enoic acid = 2,2-bis(4-pentenyl)glycine (stitching residue), C=CCCCC(CCCC=C)(N[*:1])C(=O)[*:2]; B5(4) = 2,2-bis(4-pentenyl)glycine = 2-amino-2-(pent-4-en-1-yl)hept-6-enoic acid (stitching residue), C=CCCCC(CCCC=C)(N[*:1])C(=O)[*:2]; B5(5) = 2,2-bis(4-pentenyl)glycine, 2-amino-2-(pent-4-en-1-yl)hept-6-enoic acid (stitching residue), C=CCCCC(CCCC=C)(N[*:1])C(=O)[*:2]; TfeGA = (S)-2-amino-3-((carboxymethyl)(2,2,2-trifluoroethyl)amino)propanoic acid, O=C([C@H](CN(CC(=O)[*:3])CC(F)(F)F)N[*:1])[*:2]; PyrS2 = (S)-3-amino-1-((pent-4-en-1-yloxy)carbonyl)pyrrolidine-3-carboxylic acid, C=CCCCOC(=O)N1CC[C@@](N[*:1])(C(=O)[*:2])C1; PyrS2(5) = (S)-3-amino-1-((alkenyloxy)carbonyl)pyrrolidine-3-carboxylic acid, carbamate stapling residue; B5(3) = 2,2-bis(4-pentenyl)glycine (stitching residue), C=CCCCC(CCCC=C)(N[*:1])C(=O)[*:2]; B5″ = 2,2-bis(4-pentenyl)glycine, stitching residue, C=CCCCC(CCCC=C)(N[*:1])C(=O)[*:2]; Phe(3-COOH) = N[C@@H](Cc1cccc(C(=O)O)c1)C(=O)O; 2F3MeF = Cc1cccc(C[C@H](N[*:1])C(=O)[*:2])c1F; Phe(2-CF3) = N[C@@H](Cc1ccccc1C(F)(F)F)C(=O)O; Phe(2-Cl) = N[C@@H](Cc1ccccc1Cl)C(=O)O; Bta = N[C@@H](Cc1csc2ccccc12)C(=O)O; αAllylPro = C=CC[C@@]1(C(=O)O)CCCN1; tBuAla = CC(C)(C)C[C@H](N)C(=O)O; 3Thi = N[C@@H](Cc1ccsc1)C(=O)O; S8 = C=CCCCCCC[C@](C)(N)C(=O)O; PyrS2(4) = not defined here; hSer = N[C@@H](CCO)C(=O)O; Nle = CCCC[C@H](N)C(=O)O; NH(CH2)6NH2 = NCCCCCCN*; Aib = CC(C)(N)C(=O)O

Experiments:
Experiment in all cases: cell-based or functional assay
[1] = molecular target: T1, beta-catenin in DLD1 TCF/LEF luciferase reporter cells (UniProt P35222 1-781)
T1 sequence (looked up): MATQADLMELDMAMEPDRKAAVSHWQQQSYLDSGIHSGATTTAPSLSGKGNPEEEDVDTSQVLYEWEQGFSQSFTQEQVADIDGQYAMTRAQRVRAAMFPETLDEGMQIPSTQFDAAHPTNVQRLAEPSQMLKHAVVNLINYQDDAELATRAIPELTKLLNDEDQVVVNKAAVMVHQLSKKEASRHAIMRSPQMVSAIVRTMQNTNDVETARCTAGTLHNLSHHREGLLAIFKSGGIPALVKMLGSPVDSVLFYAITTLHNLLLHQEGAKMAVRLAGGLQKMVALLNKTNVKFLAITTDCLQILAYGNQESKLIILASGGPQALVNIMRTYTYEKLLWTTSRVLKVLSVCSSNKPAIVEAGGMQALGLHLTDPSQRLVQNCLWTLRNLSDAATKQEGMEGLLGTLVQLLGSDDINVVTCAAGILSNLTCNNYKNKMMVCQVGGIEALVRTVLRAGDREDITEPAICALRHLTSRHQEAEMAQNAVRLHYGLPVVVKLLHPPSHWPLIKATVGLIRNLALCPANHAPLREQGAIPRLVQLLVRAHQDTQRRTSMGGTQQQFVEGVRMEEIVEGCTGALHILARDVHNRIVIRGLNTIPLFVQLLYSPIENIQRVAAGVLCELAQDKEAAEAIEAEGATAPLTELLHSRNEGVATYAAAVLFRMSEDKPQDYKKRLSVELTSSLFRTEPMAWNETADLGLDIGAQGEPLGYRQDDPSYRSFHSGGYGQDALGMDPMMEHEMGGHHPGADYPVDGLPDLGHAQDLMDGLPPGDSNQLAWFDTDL

[2] = molecular target: T2, beta-catenin in DLD1 TCF/LEF luciferase reporter cells (UniProt P35222 1-781); remark: listed apart in the source
T2 sequence (looked up): T1 sequence (looked up)

[3] = molecular target: T3, B-cat-Halo (beta-catenin HaloTag construct expressed in HEK293 cells) (UniProt P35222 1-781)
T3 sequence (looked up): T1 sequence (looked up)

B-cat-Halo [4] = molecular target: T4, B-cat-Halo (UniProt P35222 1-781)
T4 sequence (looked up): T1 sequence (looked up)

B-cat-Halo [5] = molecular target: T5, B-cat-Halo (UniProt P35222 1-781); remark: listed apart in the source
T5 sequence (looked up): T1 sequence (looked up)

[6] = molecular target: T6, beta-catenin in DLD1 TCF/LEF luciferase reporter cells (UniProt P35222 1-781); remark: listed apart in the source
T6 sequence (looked up): T1 sequence (looked up)

[7] = molecular target: T7, beta-catenin in DLD1 TCF/LEF luciferase reporter cells (UniProt P35222 1-781); remark: listed apart in the source
T7 sequence (looked up): T1 sequence (looked up)

[8] = molecular target: T8, B-cat-Halo (beta-catenin HaloTag construct transfected into HEK293 cells) (UniProt P35222 1-781)
T8 sequence (looked up): T1 sequence (looked up)

[9] = molecular target: T9, B-cat-Halo (Nano-BRET construct expressed in HEK293 cells) (UniProt P35222 1-781)
T9 sequence (looked up): T1 sequence (looked up)

Bcat-Halo = molecular target: T10, Bcat-Halo (UniProt P35222 1-781)
T10 sequence (looked up): T1 sequence (looked up)

[10] = molecular target: T11, beta-catenin in DLD1 TCF/LEF luciferase reporter cells (UniProt P35222 2-781)
T11 sequence (looked up): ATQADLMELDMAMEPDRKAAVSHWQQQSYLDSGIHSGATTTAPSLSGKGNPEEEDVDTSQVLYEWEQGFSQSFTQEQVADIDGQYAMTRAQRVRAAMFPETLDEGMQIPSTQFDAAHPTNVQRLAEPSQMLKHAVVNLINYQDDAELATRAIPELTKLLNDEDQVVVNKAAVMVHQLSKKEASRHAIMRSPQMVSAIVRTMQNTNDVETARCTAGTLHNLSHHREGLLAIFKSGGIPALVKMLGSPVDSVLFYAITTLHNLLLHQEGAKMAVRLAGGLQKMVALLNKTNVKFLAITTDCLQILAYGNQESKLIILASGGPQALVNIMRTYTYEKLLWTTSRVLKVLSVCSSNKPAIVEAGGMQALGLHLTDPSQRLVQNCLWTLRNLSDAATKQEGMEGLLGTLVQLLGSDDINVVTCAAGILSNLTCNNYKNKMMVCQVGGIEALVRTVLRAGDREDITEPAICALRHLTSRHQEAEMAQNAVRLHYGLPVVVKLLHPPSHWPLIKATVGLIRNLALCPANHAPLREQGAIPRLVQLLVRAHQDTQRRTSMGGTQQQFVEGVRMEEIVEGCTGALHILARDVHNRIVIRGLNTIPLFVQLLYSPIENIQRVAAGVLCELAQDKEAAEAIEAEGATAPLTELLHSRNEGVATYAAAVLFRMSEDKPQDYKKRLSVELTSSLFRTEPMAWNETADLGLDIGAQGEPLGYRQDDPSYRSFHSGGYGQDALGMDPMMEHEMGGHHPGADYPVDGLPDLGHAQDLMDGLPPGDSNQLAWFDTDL

B-cat-Halo [11] = molecular target: T12, B-cat-Halo (UniProt P35222 1-781); remark: listed apart in the source
T12 sequence (looked up): T1 sequence (looked up)

[12] = molecular target: T13, beta-catenin in DLD1 TCF/LEF luciferase reporter cells (UniProt P35222 1-781); remark: listed apart in the source
T13 sequence (looked up): T1 sequence (looked up)

Binder: Ac-[αAllylPro]D[tBuAla][B5(5)]DDAAFN[PyrS2″][3Thi][Bta]Q-NH2 (staple 1-4, 4-11) [I-686]
NanoBRET IC50 (B-cat-Halo [4]): 7.5 µM

Binder: Ac-[αAllylPro]D[tBuAla][B5″]D[TfeGA]AAFN[PyrS2(3)][3Thi][Bta]Q-NH2 (staple 1-4, 4-11) [I-761]
NanoBRET IC50 (B-cat-Halo [4]): 5 µM

Binder: Ac-[αAllylPro]D[tBuAla][B5(3)]D[TfeGA]AAF[hSer][S8][Phe(2-Cl)][Bta]Q-NH2 (staple 1-4, 4-11) [I-996]
NanoBRET Abs IC50 (B-cat-Halo [5]): 11.3 µM
DLD1 4% Abs IC50 [6]: 3.6 µM

B4: I-882 (peptide)
peptide: Ac-[αAllylPro]D[tBuAla][B5(3)]DDAAFN[PyrS2″][3Thi][Bta]Q-{NH(CH2)6NH2}
modifications: staple 1-4, 4-11; not fully specified; printed as Ac-PL3-Asp-Npg-B5-Asp-Asp-Ala-Ala-Phe-Asn-PyrS2-3Thi-BztA-Gln-6AmHex
NanoBRET IC50 [9]: 22.5 µM

Second part, the binder after the results:

DLD1 4% Abs IC50 [1]: 1.3 µM
Binder: Ac-[αAllylPro]D[tBuAla][B5(16)]D[Phe(3-COOH)][Nle]AFL[PyrS2(5)][Phe(2-Cl)][Bta]Q-NH2 (staple 1-4, 4-11) [I-1685]

DLD1 4% Abs IC50 (uM); TCF/LEF luciferase reporter assay [2]: 3 µM
NanoBRET Abs IC50 (uM); Bcat-Halo / TCF4-Luc in HEK293 cells [3]: 5.6 µM
B1: I-2521 (peptide)
peptide: Ac-[αAllylPro]D[tBuAla][B5(4)]DXAAFL[PyrS2][Phe(2-CF3)][Bta]S-NH2
modifications: staple 1-4, 4-11; not fully specified (residue 6); printed as Ac-PL3-Asp-Npg-B5-Asp-[CH2CChCO2H]TriAzDap-Ala-Ala-Phe-Leu-PyrS2-2F3MeF-BztA-Ser-NH2

DLD1 4% Abs IC50 [1]: 3.4 µM
B2: I-1684 (peptide)
peptide: Ac-[αAllylPro]D[tBuAla][B5(16)]D[Phe(3-COOH)]GAFL[PyrS2(4)][Phe(2-Cl)][Bta]Q-NH2
modifications: staple 1-4, 4-11; not fully specified; printed as Ac-PL3-Asp-Npg-B5-Asp-3COOHF-Gly-Ala-Phe-Leu-PyrS2-2C1F-BztA-Gln-NH2; reading uncertain

DLD1 4% Abs IC50 [7]: 1.2 µM
NanoBRET Abs IC50 [8]: 3.1 µM
B3: I-1920 (peptide)
peptide: Ac-[αAllylPro]D[tBuAla][B5(4)]D[Phe(3-COOH)][Aib]AFL[PyrS2(4)][3Thi][Bta]A-NH2
modifications: staple 1-4, 4-11; not fully specified; printed as Ac-PL3-Asp-Npg-B5-Asp-3COOHF-Aib-Ala-Phe-Leu-PyrS2-3Thi-BztA-Ala-NH2; reading uncertain

NanoBRET Abs IC50 (Bcat-Halo): 1 µM
DLD1 4% Abs IC50 [10]: 1.7 µM
Binder: Ac-[αAllylPro]D[tBuAla][B5(4)]D[Phe(3-COOH)][(AcPpz)GlnR]AFL[PyrS2″][2F3MeF][Bta]A-NH2 (staple 1-4, 4-11) [I-2319]

NanoBRET Abs IC50 (B-cat-Halo [11]): 4.2 µM
DLD1 4% Abs IC50 [12]: 2.1 µM
Binder: Ac-[αAllylPro]D[tBuAla][B5(4)]DDAAFF[PyrS2″][Phe(2-CF3)][Bta]Q-NH2 (staple 1-4, 4-11) [I-1319]
